In patent publication US20080253962A1 (Bristol-Myers Squibb, published 2008):
One block for each binder: values may come before it.

What was measured:
[1] = biological target: T1, IRTA2, full length transmembrane form with N-terminal myc tag, expressed on transfected CHO cells (human, UniProt Q96RD9 16-977); assay: flow cytometry on transfected CHO cells, GMFI
T1 construct: Full length cDNA in CHO cells; also called human IRTA-2; not shown: myc tag at the N-terminus
T1 chain: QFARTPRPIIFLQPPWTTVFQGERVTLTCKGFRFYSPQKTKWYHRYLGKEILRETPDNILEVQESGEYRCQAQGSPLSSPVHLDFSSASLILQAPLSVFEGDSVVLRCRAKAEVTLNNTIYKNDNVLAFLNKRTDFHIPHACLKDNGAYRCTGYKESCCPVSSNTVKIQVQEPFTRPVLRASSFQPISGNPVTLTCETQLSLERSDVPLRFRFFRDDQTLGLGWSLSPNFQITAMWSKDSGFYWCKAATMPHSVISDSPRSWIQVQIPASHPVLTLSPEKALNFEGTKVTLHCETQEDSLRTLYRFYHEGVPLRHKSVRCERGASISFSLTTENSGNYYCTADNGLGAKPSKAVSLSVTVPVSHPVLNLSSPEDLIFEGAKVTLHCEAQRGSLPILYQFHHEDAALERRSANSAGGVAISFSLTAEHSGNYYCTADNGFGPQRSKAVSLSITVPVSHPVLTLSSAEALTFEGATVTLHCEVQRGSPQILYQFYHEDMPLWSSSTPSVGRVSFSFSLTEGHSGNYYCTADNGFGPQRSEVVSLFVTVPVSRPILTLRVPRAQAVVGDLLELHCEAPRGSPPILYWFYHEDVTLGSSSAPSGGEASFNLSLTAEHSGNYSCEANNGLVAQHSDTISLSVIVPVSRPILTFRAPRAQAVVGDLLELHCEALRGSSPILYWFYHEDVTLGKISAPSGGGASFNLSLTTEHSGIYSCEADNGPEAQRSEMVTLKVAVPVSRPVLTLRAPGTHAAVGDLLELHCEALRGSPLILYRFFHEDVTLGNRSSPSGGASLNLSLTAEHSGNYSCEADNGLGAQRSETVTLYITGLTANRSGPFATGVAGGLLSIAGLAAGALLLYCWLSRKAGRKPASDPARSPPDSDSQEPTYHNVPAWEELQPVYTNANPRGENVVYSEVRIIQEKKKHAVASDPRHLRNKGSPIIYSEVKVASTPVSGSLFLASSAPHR
From the text: (§1) Chinese hamster ovary (CHO) cell lines that express one of each of the five IRTA proteins at the cell surface were developed and used to determine the specificity of the IRTA4 monoclonal antibodies by flow cytometry. CHO cells were transfected with expression plasmids containing full length cDNA encoding transmembrane forms of IRTA1, IRTA2, IRTA3, IRTA4, or IRTA5. In addition, the transfected proteins contained a myc tag at the N-terminus for detection by anti-myc antibody. Binding of the two anti-IRTA4 monoclonal antibodies was assessed by incubating the transfected cells with each of the IRTA4 Abs at a concentration of 10 μg/ml. The cells were washed and binding was detected with a FITC-labeled anti-human IgG Ab. A murine anti-myc Ab followed by labeled anti-murine IgG was used as the positive control. Secondary antibody alone was used as a negative control. The results are depicted in FIG. 7. The IRTA4 monoclonal antibodies 9G11 and 13B1 bound to the CHO line transfected with IRTA4 but not to CHO lines expressing IRTA1, 2, 3 or 5 as measured by the mean fluorescent intensity (MFI) of staining.

[2] = biological target: T2, IRTA5, full length transmembrane form with N-terminal myc tag, expressed on transfected CHO cells (human, UniProt Q96LA6 17-429); assay: flow cytometry on transfected CHO cells, GMFI
T2 construct: Full length cDNA in CHO cells; also called human IRTA-5; not shown: myc tag at the N-terminus
T2 sequence: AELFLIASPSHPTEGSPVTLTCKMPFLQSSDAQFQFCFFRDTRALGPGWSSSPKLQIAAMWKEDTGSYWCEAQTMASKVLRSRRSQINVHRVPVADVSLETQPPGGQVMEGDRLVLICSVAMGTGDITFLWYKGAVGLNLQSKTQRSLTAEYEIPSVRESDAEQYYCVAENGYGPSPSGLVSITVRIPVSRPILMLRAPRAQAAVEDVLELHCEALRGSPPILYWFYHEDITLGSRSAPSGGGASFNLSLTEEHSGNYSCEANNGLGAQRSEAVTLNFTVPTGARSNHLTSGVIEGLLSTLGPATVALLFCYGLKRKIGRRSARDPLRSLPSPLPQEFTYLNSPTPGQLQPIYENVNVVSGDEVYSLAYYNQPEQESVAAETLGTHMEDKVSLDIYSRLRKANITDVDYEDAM
From the text: as §1

[3] = biological target: T3, IRTA1, full length transmembrane form with N-terminal myc tag, expressed on transfected CHO cells (human, UniProt Q96PJ5 20-515); assay: flow cytometry on transfected CHO cells, GMFI
T3 construct: Full length cDNA in CHO cells; also called human IRTA-1; not shown: myc tag at the N-terminus
T3 sequence: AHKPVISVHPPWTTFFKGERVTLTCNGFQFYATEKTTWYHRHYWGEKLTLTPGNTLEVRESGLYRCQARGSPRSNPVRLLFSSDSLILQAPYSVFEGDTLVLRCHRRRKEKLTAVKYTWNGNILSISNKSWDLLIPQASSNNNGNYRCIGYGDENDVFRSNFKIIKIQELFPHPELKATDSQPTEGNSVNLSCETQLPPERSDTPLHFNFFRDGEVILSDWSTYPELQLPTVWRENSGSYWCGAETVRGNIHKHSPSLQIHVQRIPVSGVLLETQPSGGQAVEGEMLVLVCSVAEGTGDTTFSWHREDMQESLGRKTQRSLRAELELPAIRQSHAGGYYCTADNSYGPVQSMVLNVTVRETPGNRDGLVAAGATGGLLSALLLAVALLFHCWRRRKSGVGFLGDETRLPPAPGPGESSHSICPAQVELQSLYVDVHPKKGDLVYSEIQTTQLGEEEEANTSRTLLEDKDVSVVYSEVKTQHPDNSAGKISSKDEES
From the text: as §1

[4] = biological target: T4, IRTA3, full length transmembrane form with N-terminal myc tag, expressed on transfected CHO cells (human, UniProt Q96P31 18-734); assay: flow cytometry on transfected CHO cells, GMFI
T4 construct: Full length cDNA in CHO cells; also called human IRTA-3; not shown: myc tag at the N-terminus
T4 sequence: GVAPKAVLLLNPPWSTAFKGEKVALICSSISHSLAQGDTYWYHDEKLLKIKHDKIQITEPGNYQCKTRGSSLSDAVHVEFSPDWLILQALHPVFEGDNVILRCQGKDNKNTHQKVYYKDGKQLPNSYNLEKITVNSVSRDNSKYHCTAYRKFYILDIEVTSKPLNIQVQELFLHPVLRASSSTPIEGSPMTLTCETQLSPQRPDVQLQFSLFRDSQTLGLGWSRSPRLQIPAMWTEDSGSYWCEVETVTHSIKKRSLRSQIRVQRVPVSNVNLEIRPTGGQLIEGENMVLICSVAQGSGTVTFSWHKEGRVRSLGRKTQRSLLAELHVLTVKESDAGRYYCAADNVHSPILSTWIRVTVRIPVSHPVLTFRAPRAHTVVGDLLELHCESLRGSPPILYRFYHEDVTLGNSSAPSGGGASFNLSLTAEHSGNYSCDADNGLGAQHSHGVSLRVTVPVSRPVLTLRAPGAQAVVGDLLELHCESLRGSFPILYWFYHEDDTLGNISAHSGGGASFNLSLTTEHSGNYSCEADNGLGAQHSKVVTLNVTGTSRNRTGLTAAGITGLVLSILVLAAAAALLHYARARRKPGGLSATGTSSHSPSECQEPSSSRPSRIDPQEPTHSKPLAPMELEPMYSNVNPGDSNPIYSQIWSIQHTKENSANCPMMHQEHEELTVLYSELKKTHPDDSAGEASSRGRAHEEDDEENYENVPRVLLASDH
From the text: as §1

[5] = biological target: T5, IRTA4, full length transmembrane form with N-terminal myc tag, expressed on transfected CHO cells (human, UniProt Q96LA5 20-508); assay: flow cytometry on IRTA4-transfected CHO cells, antibody at 10 µg/ml, FITC anti-human IgG detection, GMFI
T5 construct: Full length cDNA in CHO cells; also called human IRTA-4; CHO line transfected with IRTA4; not shown: myc tag at the N-terminus
T5 sequence: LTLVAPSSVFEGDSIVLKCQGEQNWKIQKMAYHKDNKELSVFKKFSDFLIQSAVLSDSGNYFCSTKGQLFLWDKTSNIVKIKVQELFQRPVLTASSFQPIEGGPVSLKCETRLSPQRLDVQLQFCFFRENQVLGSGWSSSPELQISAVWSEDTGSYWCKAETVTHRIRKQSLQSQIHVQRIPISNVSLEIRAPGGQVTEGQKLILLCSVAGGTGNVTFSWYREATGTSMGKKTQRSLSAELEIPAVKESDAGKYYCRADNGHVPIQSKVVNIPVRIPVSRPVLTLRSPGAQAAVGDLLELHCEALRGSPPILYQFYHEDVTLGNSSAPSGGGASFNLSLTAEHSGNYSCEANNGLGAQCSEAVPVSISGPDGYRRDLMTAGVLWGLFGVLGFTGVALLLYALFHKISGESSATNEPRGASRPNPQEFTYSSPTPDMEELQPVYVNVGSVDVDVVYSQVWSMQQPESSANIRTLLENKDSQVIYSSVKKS
From the text: as §1

[6] = biological target: T6, IRTA4-C9 antigen (fusion protein composed of the extracellular domain of the IRTA4 linked to the carboxy … (human, UniProt P02699 340-348 (bovine entry))); assay: Biacore SPR, antibody captured by anti-human IgG on CM5 chip, IRTA4-C9 flowed at 50-400 nM, 1:1 Langmuir fit
T6 construct: domain: carboxy terminal nine amino acids
T6 sequence: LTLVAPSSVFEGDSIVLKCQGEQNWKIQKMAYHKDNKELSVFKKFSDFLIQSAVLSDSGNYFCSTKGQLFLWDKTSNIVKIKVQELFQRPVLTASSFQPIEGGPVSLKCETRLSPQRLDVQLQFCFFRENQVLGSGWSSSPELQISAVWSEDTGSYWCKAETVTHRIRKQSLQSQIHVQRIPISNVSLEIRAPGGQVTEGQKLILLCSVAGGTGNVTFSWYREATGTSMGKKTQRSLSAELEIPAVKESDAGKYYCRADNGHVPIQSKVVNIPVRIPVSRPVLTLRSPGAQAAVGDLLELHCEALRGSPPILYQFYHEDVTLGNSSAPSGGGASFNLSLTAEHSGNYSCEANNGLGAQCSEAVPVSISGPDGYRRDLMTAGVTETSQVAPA
Method: Anti-IRTA4 antibodies were characterized for affinities and binding kinetics by Biacore analysis (Biacore AB, Uppsala, Sweden). Purified anti-IRTA4 monoclonal antibodies were captured by anti-human IgG antibody covalently linked to a CM5 chip (carboxy methyl dextran coated chip) via primary amines, using standard amine coupling chemistry and kit provided by Biacore. Binding was measured by flowing the IRTA4-C9 antigen (a fusion protein composed of the extracellular domain of the IRTA4 linked to the carboxy terminal nine amino acids of rhodopsin) in HBS EP buffer (provided by Biacore AB) at concentrations of 400, 300, 200, 100, and 50 nM at a flow rate of 20 μl/min. The antigen-antibody association kinetics was followed for 10 minutes and the dissociation kinetics was followed for 10 minutes. The association and dissociation curves were fit to a 1:1 Langmuir binding model using BIAevaluation software (Biacore AB).

binding result [1]: no binding (tested: 10 µg/ml) | binding result [2]: no binding (tested: 10 µg/ml) | binding result [3]: no binding (tested: 10 µg/ml) | binding result [4]: no binding (tested: 10 µg/ml) | binding result [5]: binds | Kd [6]: 2.8 nM | koff [6]: 7.4e-05 s⁻¹ | kon [6]: 26300 M⁻¹ s⁻¹
B1: 9G11 human monoclonal antibody (antibody, V domains shown)
VH: QVQLVQSGAEVKKPGASVKVSCKASGYTFTSYAMHWVRQAPGQRLEWMGWINVGNGNTRYSQKFQGRVTITRDTSASTAYMELSSLRSEDTAVYYCAREGSNGWHEDFDYWGQGTLVTVSS
VL: EIVLTQSPATLSLSPGERATLSCRASQSVSSYLAWYQQKPGQAPRLLIYDASNRATGIPARFSGSGSGTDFTLTISSLEPEDFAVYYCQQRSDWPPSLTFGGGTKVEIK
notes: Hybridoma-derived fully human IgG with kappa light chain from KM mice; also called anti-IRTA4 HuMAb 9G11

binding result [1]: no binding (tested: 10 µg/ml) | binding result [2]: no binding (tested: 10 µg/ml) | binding result [3]: no binding (tested: 10 µg/ml) | binding result [4]: no binding (tested: 10 µg/ml) | binding result [5]: binds | Kd [6]: 3.48 nM | koff [6]: 0.000426 s⁻¹ | kon [6]: 125000 M⁻¹ s⁻¹
B2: 13B1 human monoclonal antibody (antibody, V domains shown)
VH: QVQLVQSGAEVKKPGASVKVSCKASGYNFNSYDISWVRQAAGQGLEWMGWMNPNSGYTSYAQKFQGRVTMTWNTSISTAYMELSSLRSEDSAVYYCAREGIVGAIGWFDPWGQGTLVTVSS
VL: DIQMTQSPSSVSASVGDRVTITCRASQGISSWLAWYQHKPGKAPKLLIYAASSLQSGVPSRFSGSGSGTDFTLTISSLQPEDFATYYCQQANSFPLTFGGGTKVEIK
notes: Hybridoma-derived fully human IgG with kappa light chain from KM mice; also called anti-IRTA4 HuMAb 13B1
